Values joined by “and” are separate entries in the source; they are usually repeats but may differ in a detail not shown here. Equal entries are not always repeated.

The target in assay [1] is LRP6 P3E3P4E4 (Homo sapiens) (UniProt O75581). Conditions: cited from earlier work.
For assay [2], the target named is LRP6 P1E1P2E2 (Homo sapiens) (UniProt O75581). Conditions: cited from earlier work.
Assay [3] deals with T1, human LRP6 β-propeller-EGF modules P3E3P4E4 (Homo sapiens).
T1 construct: Low-density lipoprotein receptor-related protein 6 (LRP6), human, domains P3E3P4E4; the methods say Uniprot residues 639-1244, the results say UNIPROT residues 629-1244; Expressed from pUPE107.03 with an N-terminal cystatin secretion signal; also called LRP6^P3E3P4E4; LRP6 P3E3P4E4; source: HEK293 GnTI- cells, transiently co-expressed with human MESD, secreted, purified (Ni-Sepharose excel, SEC …)
T1 chain: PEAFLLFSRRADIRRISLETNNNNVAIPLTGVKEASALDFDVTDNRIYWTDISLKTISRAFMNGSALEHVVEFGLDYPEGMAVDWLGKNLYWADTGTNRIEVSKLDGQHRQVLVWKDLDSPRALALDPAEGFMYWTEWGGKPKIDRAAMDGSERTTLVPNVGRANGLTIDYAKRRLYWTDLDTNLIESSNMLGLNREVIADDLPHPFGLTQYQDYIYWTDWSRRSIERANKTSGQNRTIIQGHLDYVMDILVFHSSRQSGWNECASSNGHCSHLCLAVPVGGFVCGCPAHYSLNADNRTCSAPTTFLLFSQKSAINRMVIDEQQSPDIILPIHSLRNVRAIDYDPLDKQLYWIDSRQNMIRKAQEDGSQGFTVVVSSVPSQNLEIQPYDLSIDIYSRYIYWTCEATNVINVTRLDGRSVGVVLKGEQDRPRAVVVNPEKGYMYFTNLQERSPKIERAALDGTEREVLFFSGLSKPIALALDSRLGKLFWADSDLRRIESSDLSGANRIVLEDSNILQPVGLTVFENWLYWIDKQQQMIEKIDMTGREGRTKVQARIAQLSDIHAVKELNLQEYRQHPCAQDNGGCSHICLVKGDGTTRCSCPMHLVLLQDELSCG
Nature of the assay: quartz crystal microbalance (QCM); LRP6 P3E3P4E4 immobilised by amine coupling on an Attana LNB chip; VHH injected at four rising concentrations (single cycle kinetics); 22 °C, HBS-T, 25 µL/min; 1:1 fitting model. Conditions: both partners purified.

Assay [4] concerns the target T2, human LRP6 β-propeller-EGF modules P3E3P4E4 (human, UniProt O75581 639-1244).
T2 chain: T1 chain
Briefly: ITC.

The target in assay [5] is T3, human LRP6 β-propeller-EGF modules P3E3P4E4 (Homo sapiens).
T3 construct: low-density lipoprotein receptor-related protein 6 (LRP6), human, domains P3E3P4E4; methods: Uniprot residues 639-1244; results: residues UNIPROT 629-1244; Vector pUPE107.03 with an N-terminal cystatin secretion signal; A second construct with a C-terminal BAP-tag followed by His6 (biotinylated by Bir-A) was used for the CIS display selection and the ELISA screening only; also called …
T3 chain: T1 chain
Briefly: quartz crystal microbalance (QCM); LRP6^P3E3P4E4 immobilised by amine coupling on an Attana LNB chip; VHHs injected (0.03-0.25 µg/mL) in HBS-T, single-cycle kinetics, 22 °C, 1:1 fitting model. Conditions: both partners purified.

For assay [6], the target named is T3, human LRP6 β-propeller-EGF modules …. Nature of the assay: ITC; 10 µM LRP6^P3E3P4E4 in the cell, 100 µM VHH injected, DPBS, 25 °C, triplicate. Conditions: both partners purified.
Assay [7] shares this target. Briefly: cell-based or functional assay.
The target of assay [8] is T4, human LRP6 β-propeller-EGF modules P3E3P4E4 (Homo sapiens).
T4 construct: low-density lipoprotein receptor-related protein 6 (LRP6), human, domains P3E3P4E4; Cloned with an N-terminal cystatin secretion signal; also called LRP6^P3E3P4E4; LRP6 P3E3P4E4; source: HEK293 GnTI- cells, transiently co-expressed with human MESD, secreted, purified (Ni-Sepharose excel, SEC)
T4 chain: T1 chain
Nature of the assay: ITC; 10 µM LRP6 P3E3P4E4 in the sample cell, 100 µM VHH injected, DPBS, 25 °C; triplicate. Conditions: both partners purified.

LRP6 P3E3P4E4 (Homo sapiens), sequence (O75581 631-1246): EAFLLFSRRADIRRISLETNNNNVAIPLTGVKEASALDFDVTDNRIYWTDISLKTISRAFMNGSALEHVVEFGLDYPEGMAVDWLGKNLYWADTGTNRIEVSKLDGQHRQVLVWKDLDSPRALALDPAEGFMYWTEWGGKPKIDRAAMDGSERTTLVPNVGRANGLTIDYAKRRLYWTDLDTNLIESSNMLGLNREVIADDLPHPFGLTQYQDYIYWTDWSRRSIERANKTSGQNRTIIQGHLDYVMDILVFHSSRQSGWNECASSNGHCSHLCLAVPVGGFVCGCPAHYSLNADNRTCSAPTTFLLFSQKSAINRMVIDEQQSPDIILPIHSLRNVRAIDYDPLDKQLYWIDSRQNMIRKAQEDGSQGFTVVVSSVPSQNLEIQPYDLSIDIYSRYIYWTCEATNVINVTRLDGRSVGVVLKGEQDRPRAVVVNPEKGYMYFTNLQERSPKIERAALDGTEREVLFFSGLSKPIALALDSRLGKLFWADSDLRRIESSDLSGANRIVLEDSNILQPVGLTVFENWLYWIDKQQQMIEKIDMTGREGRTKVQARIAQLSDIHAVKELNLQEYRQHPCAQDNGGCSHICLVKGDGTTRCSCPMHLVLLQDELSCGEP
LRP6 P1E1P2E2 (Homo sapiens), sequence (O75581 20-630): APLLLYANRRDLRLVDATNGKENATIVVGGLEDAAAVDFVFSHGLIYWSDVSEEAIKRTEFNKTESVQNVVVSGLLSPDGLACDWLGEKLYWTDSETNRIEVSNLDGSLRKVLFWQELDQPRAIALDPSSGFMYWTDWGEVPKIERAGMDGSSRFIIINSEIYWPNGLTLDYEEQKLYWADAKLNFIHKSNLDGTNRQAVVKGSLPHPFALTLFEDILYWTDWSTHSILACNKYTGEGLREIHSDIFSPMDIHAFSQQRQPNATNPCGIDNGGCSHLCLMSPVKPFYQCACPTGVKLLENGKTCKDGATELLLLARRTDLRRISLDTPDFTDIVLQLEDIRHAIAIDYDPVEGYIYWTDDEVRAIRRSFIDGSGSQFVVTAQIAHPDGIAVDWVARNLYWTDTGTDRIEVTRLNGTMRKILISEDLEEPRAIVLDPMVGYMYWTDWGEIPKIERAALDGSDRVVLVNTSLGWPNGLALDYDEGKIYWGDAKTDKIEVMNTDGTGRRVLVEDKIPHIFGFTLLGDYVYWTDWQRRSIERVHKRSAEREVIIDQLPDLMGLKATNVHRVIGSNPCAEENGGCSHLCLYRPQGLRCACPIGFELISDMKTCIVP

Regarding DKK1 DKK1_C (from UniProt O94907), the Kd in assay [1] and in assay [2] was 70 nM each time.

B1: anti-LRP6 VHH L-P2-H07, C-terminal V5-FLAG3-His6-tagged (VHH)
VHH: EVQLQESGGGLVQAGGSLRLSCAASGDIISSYRMGWFRQAPGKEREFVSDITPSIGHTYYADSVKGRFTISRDNAKNTVYLQMNSLKPEDTAVYYCRAVDRSYRYPYEYWGQGTQVTVSS
notes: Selected by CIS display from a fully synthetic VHH library; No structure of its complex was deposited; source: E. coli BL21 Gold, purified (IMAC, SEC Superdex 75); not shown: V5, C-terminal, kept; FLAG3, C-terminal, kept; His6, C-terminal, kept
In the case of B1, in assay [3], the affinity, expressed as Kd, was 2.3 nM; the koff came to 0.00018 s⁻¹; the kon came to 81000 M⁻¹ s⁻¹. Further, the dissociation constant (Kd) in assay [4] came to 17.5 nM.

B2: anti-LRP6 VHH L-P2-D07, C-terminal V5-FLAG3-His6-tagged (VHH)
VHH: EVQLQESGGGLVQAGGSLRLSCAASGRTFSIYTIGWFRQAPGKEREFVAEITWSGGSTYYADSVKGRFTISRDNAKNTVYLQMNSLKPEDTAVYYCAAITYTRGIYKYWGQGTQVTVSS
notes: also in the deposited structure of the complex with LRP6 P3E3P4E4; Selected by CIS display from a fully synthetic VHH library; also called L-P2-D07-V5-Flag3-His6; source: E. coli BL21 Gold, purified (IMAC, SEC Superdex 75); not shown: V5, C-terminal, kept; FLAG3, C-terminal, kept; His6, C-terminal, kept
Take B2: in assay [3], the Kd was 0.4 nM, the koff stood at 0.00015 s⁻¹ and the kon stood at 370000 M⁻¹ s⁻¹.

B3: anti-LRP6 VHH L-P2-D07 with C-terminal V5-FLAG3-His6-tag (VHH)
VHH: B2 VHH
notes: Selected by CIS display from a fully synthetic VHH library; also called anti-LRP6^P3E3P4E4 VHH; anti-LRP5/6^P3 VHH; source: E. coli BL21 (BL21-Gold), purified (IMAC, SEC Superdex 75); not shown: V5, C-terminal, kept; FLAG3, C-terminal, kept; His6, C-terminal, kept
For B3, in assay [5], the koff was around 0.0001 s⁻¹ and the kon is around 100000 M⁻¹ s⁻¹. In addition, in assay [6], the Kd was below 40 nM and the “stoichiometry N” value worked out at 1. Moreover, in assay [7], the “IC50 of inhibition of cellular responses to Wnt3a (Wnt luciferase reporter, HEK293T); blocks Wnt3a with LRP6” value came to 94 nM; the “IC50 of inhibition of cellular responses to the combination of Wnt3a and R-spondin1 (Wnt luciferase reporter, HEK293T); blocks Wnt3a with LRP6” value came to 40 nM.

B4: anti-LRP6 VHH L-P2-D07 (VHH)
VHH: B2 VHH
notes: they are in the deposited structure of its complex with LRP6 P3E3P4E4 (PDB 6H15 or 6H16); Selected by CIS display from a fully synthetic VHH library; source: E. coli BL21, purified (IMAC, SEC); not shown: V5, C-terminal, kept; FLAG3, C-terminal, kept; His6, C-terminal, kept
On to B4, for which, in assay [8], the dissociation constant (Kd) was 30.3 nM and 35.7 nM and 29.4 nM; the “stoichiometry N” value is 0.921 and 0.893 and 0.881.

B5: anti-LRP6 VHH L-P2-B10 with C-terminal V5-FLAG3-His6-tag (VHH)
VHH: EVQLQESGGCLVQAGGSLRLSCAASGSTFSTYTIGWFRQAPGKEREFVAAIHWDGGQTYYADSVKGRFTISRDNAKNTVYLQMNSLKPEDTAVYYCAARGRRYFDFTYSDVYDYWGQGTQVTVSS
notes: as for B3
Take B5: in assay [5], the koff was around 0.0001 s⁻¹ and the kon was around 100000 M⁻¹ s⁻¹. Moreover, in assay [6], the Kd is below 40 nM and the “stoichiometry N” value was 1. Besides, in assay [7], the “IC50 of inhibition of cellular responses to Wnt3a (Wnt luciferase reporter, HEK293T); blocks Wnt3a with LRP6” value came out at 82 nM; the “IC50 of inhibition of cellular responses to the combination of Wnt3a and R-spondin1 (Wnt luciferase reporter, HEK293T); blocks Wnt3a with LRP6” value was determined as 40 nM. For the same molecule, the Kd in assay [4] was 12.8 nM.

B6: anti-LRP6 VHH L-P2-B10 (VHH)
VHH: B5 VHH
notes: as for B4
Turning to B6, in assay [8], the Kd was 14.5 nM and 11.9 nM and 12.2 nM; the “stoichiometry N” value was 1.09 and 1.08 and 1.15.

B7: anti-LRP6 VHH L-P2-B10, C-terminal V5-FLAG3-His6-tagged (VHH)
VHH: B5 VHH
notes: also in the deposited structure of the complex with LRP6 P3E3P4E4; Selected by CIS display from a fully synthetic VHH library; source: E. coli BL21 Gold, purified (IMAC, SEC Superdex 75); not shown: V5, C-terminal, kept; FLAG3, C-terminal, kept; His6, C-terminal, kept
In assay [3], B7 had a Kd of 0.8 nM, a koff of 0.00014 s⁻¹ and an on-rate (kon) of 180000 M⁻¹ s⁻¹.
